The record followed here is US20220340678A1.

Test [1] has as its target biotinylated human uPAR (human), Q03405. The experiment in a line: BLI (Octet) on biotinylated human uPAR; row 'None': no first antibody. On the technique in general: Biolayer interferometry detects binding as a change in optical thickness at a sensor tip.
For test [2] the target is unchanged. The experiment in a line: BLI (Octet) competition on biotinylated human uPAR; competitor (first antibody): ATN-368 (ATN-658).
Test [3] shares this target. The experiment in a line: BLI (Octet) competition on biotinylated human uPAR; competitor (first antibody): M1.
Test [4] deals with human uPAR expressed on HEK293 cells (human), Q03405. Put plainly: flow cytometry, HEK293 cells expressing human uPAR, 100 nM uPA present. On the technique in general: In flow cytometry, cells or beads pass a laser one at a time.
Test [5] has as its target biotinylated human uPAR (human), Q03405. Put plainly: BLI (Octet) competition on biotinylated human uPAR; competitor (first antibody): M5.

B1: ATN-658 (antibody)
chain 1: not shown
chain 2: VQLQESGPELVKTGASVKISCKASGYSFTSYYMHWVKQSHGKSLEWIGEINPYNGGASYNQKIKGRATFTVDTSSRTAYMQFNSLTSEDSAVYYCARSIYGHSVLDYWGQGTTVTVS
modifications: not checked
With B1, the response in competition assay in test [1] was 0.33; in test [2], -0.0274; in test [3] it was -0.0144; in test [5], 0.387. The EC50 (usually the concentration at which the effect is half-maximal) in test [4] stood at 3.99 nM.
